Values of other authors in paper PMC4245495.
pKd: −log10 of the molar value.

Biological target: Uroplakin Ia (UniProt O00322)
Sequence of UniProt O00322 (O00322 whole entry): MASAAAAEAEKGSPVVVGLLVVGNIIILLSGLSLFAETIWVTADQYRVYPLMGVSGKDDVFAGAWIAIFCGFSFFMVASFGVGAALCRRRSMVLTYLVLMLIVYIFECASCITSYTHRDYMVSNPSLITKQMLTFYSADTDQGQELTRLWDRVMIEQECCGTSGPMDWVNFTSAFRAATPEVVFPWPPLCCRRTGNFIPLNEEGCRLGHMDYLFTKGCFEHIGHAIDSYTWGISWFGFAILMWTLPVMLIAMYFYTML

## FimH (from UniProt P08191)
  pKd: 7.00
